Results as given in PMC5809731.

Columns and labels:
[1] = biological target: B30.2 domain of human TRIM5α (human) (UniProt Q9C035); test: dual-focus fluorescence correlation spectroscopy (2fFCS); 2 nM Alexa 488-labelled B30.2 or CypA titrated with unlabelled capsid surrogate; 7°C; hydrodynamic radius against concentration, viscosity corrected with CypA as reference; Kd per monomeric capsid equivalent
[2] = biological target: B30.2 domain of rhesus TRIM5α (rhesus macaque) (UniProt Q0PF16); test: as above
[3] = biological target: Flag-tagged human cyclophilin A (human) (UniProt P62937); test: as above
[4] = biological target: Flag-tagged human cyclophilin A (human) (UniProt P62937); test: dual-focus fluorescence correlation spectroscopy (2fFCS)

Sequence of Flag-tagged human cyclophilin A (human) (P62937 whole entry): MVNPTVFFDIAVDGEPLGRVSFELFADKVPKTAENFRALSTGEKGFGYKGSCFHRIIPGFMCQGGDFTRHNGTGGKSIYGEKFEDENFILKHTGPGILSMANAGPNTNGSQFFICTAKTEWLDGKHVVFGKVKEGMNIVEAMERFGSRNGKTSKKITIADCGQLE
Sequence of B30.2 domain of rhesus TRIM5α (rhesus macaque) (Q0PF16 other isoform, or with tags, fused parts or gaps): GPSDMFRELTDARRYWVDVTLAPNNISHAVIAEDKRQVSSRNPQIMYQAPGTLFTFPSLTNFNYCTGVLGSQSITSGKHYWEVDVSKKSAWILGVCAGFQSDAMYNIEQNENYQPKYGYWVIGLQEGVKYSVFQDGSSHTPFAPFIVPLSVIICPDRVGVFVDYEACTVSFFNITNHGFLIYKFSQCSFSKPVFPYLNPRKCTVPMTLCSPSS
Sequence of B30.2 domain of human TRIM5α (human) (Q9C035 286-493): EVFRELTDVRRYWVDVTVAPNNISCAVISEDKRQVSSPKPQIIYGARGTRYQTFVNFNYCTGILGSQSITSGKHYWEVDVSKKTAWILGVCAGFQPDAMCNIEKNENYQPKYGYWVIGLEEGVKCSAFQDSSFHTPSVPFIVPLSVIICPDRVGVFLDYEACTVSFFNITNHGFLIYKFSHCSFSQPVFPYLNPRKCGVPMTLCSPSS

Substance	Kd [1] [µM]	Kd [2] [µM]	Kd [3] [µM]	Kd [4] [µM]
disulfide-linked A14C E45C W184A M185A HIV-1 capsid hexamer (complex)	540	600	28.9	–
TMEA-cross-linked R82C E180D V181A HIV-1 capsid trimer (complex)	840	440	17.8	–
wild-type, full-length HIV-1 capsid protein (from UniProt P12493 133-363) (natural protein; other documents disagree on this pair)	–	–	–	26.5
